Patent US20260117274A1, “ORTHOGONALLY CROSSLINKED PROTEINS, METHODS OF MAKING, AND USES THEREOF” (The Research Foundation for The State University of New York, priority 2022, published 2026)
Residue numbers refer to the chain shown, from its start. Names and notes keep the numbering of the source.

Test: Intramolecular (inter-strand) crosslinking yield of nanobody/monobodies by mass spectrometry
Conditions: UAA-encoded monobodies, MS characterization (Table 5)
Description: To probe whether CATK-1 is suitable for inter-strand cross-linking in proteins containing the disulfide bond, we selected a small protein called nanobody NB1, a prototypical single-chain VHH antibody that binds specifically to GFP protein. Based on NB1 structure, there is one disulfide bond formed between Cys-24 and Cys-98, close to a proposed orthogonal crosslinking site at Val-4 and Tyr-106 (FIG. 5a, left). To test orthogonal crosslinking, we placed CATK-1 at Val-4 position to target Tyr-106 located 5.6 Å away on the opposing strand. The BocK- and CATK-1-encoded NB1 were successfully expressed at yields of 14.3 mg L^−1 and 3.5 mg L^−1, respectively (FIG. 5b, left). […] Separately, we also examined the utility of CATK-1 in effecting intramolecular crosslinking in an antibody mimic called monobody. Due to their lack of cysteine residues, small size (˜10 kDa), and evolvable binding affinity and specificity, monobodies represent an ideal protein scaffold for targeting protein-protein interactions in the cytosols of mammalian cells. However, monobodies are cell impermeable, severely limiting their potential. One strategy to potentially overcome this limitation is to combine protein surface supercharging with orthogonal crosslinking to increase stability in the endosomes and thus improve cytosolic delivery. To this end, we designed an overall +10 charged monobody NSa1, termed NSa1(+10), using the Supercharge protocol on ROSIE Rosetta Online Server and added an amber codon at Ala-13 position. Based on the NSa1 structure, A13CATK-1 is well-positioned to react with the proximal Tyr-92 on the opposing strand at C-terminus (FIG. 5a, right). Accordingly, the wild-type and NSa1(+10) mutant proteins encoding CATK-1 or BocK were expressed and purified in good yields (4.1-6.9 mg L^1; FIG. 5b, right). […] The crosslink-containing fragment was identified by LC/MS after trypsin digestion (FIG. 21).
To assess if BeLaK is suitable for orthogonal crosslinking of domain antibodies, we selected NSa1, a monobody-based SHP2 inhibitor, and placed BeLaK at position-13 of the N-terminal β-strand. A panel of supercharged NSa1 mutants carrying overall charges of +6, +8, +11, and +18, respectively, were designed using Supercharge protocol on ROSIE Rosetta Online Server with native NSa1 (˜2 charge) as a template. […] Thus, the supercharged monobodies encoding either BeLaK or BocK were expressed in good yields (2.2˜7.2 mg L^−1; FIG. 42). […] Furthermore, as the positive charge increases, the mobility decreases, likely due to reduced overall negative charge after association with the SDS molecules. MS analysis further confirmed the identities of the supercharged NSa1 mutants (FIG. 34c). Since the unreacted BeLaK-encoded monobodies share the same mass as the crosslinked ones, we treated the purified monobodies with excess β-mercapto-ethanol for 7 days, which accelerates the hydrolysis of the unreacted β-lactam and in turn adds +18 Da to protein mass, and monitored the intact mass change. Using this method, we determined orthogonal crosslinking yields to range from 5% for native NSa1 to more than 50% for +8/+11/+18 mutants (FIG. 42). We attribute the higher yields to the increased conformational dynamics, which promotes proximity-driven crosslinking reactions. The crosslinking sites in +11 and +18 mutants were mapped to Lys-21 and Lys-19, respectively, residues on the nearby β-strand, based on the identified fragment masses after trypsin digestion (FIG. 34d, FIG. 50).
Crosslinking yield determination of BeLaK-encoded NSa1 variants. To quantify the extent of crosslinking, β-mercaptoethanol (20 mM) was added at a final concentration of 2.58 mM (100 equiv, 3 μL) to a solution of purified NSa1 variants (25 μM, 30 μL) in elution buffer (50 mM Na2HPO4, pH=7.4, 300 mM NaCl, 250 mM imidazole). The mixture was incubated at 37° C. overnight. Afterwards, the mixture was removed from the incubator and allowed to incubate at 25° C. for 1 week.

B1: NSa1(+7)-A13BeLaK: supercharged NSa1 monobody encoding BeLaK; SEQ. ID. NO: 11 (protein)
chain: MGSSHHHHHHSSGTENLYFQGVSSKPTKLRVVRXTPTSLKIKWDAPAVTVDYYVITYGEKGRGGYAWQEFEVPGSKRTATISGLKPGVDYTITVYAGYKGYPTYYSSPISINYRT
modifications: BeLaK non-natural residue at position 13; MOD_RES 34 X is N6-(2-Oxoazetidine-1-carbonyl)-L-lysine
notes: supercharged NSa1 monobody encoding BeLaK; ID; NO: 11
For B1, the X-linking yield was 61%.

B2: NSa1(+10)-A13BeLaK: supercharged NSa1 monobody encoding BeLaK; SEQ. ID. NO: 14 (protein)
chain: B1 chain with V48K, K60T, E69R, S82K
modifications: BeLaK non-natural residue at position 13; MOD_RES 34 X is N6-(2-Oxoazetidine-1-carbonyl)-L-lysine
notes: supercharged NSa1 monobody encoding BeLaK; ID; NO: 14
B2 gave a X-linking yield of 86%.

B3: NSa1(+17)-A13BeLaK: supercharged NSa1 monobody encoding BeLaK; SEQ. ID. NO: 18 (protein)
chain: MGSSHHHHHHSSGTENLYFQGVKSKPTKLRVVRXTPTSLKISWKAPKKTVDYYVITYGKTGSGGYAWQRFRVPGSKRTAKIKGLKPGVDYTITVYAGYKGYPTYYSSPISINYRT
modifications: BeLaK non-natural residue at position 13; MOD_RES 34 X is N6-(2-Oxoazetidine-1-carbonyl)-L-lysine
notes: supercharged NSa1 monobody encoding BeLaK; ID; NO: 18
B3 showed a X-linking yield of 87%.

B4: NSa1(+10)-A13BeLaK-C95: supercharged NSa1 monobody encoding BeLaK, C-terminal Cys; SEQ. ID. NO: 22 (protein)
chain: MGSSHHHHHHSSGTENLYFQGVSSKPTKLRVVRXTPTSLKIKWDAPAKTVDYYVITYGETGRGGYAWQRFEVPGSKRTATIKGLKPGVDYTITVYAGYKGYPTYYSSPISINYRTC
modifications: BeLaK at position 13; C-terminal Cys; MOD_RES 34 X is N6-(2-Oxoazetidine-1-carbonyl)-L-lysine
notes: supercharged NSa1 monobody encoding BeLaK, C-terminal Cys; ID; NO: 22
Molecule B4 has a X-linking yield of 22%.

B5: NSa1(+10)-A13BeLaK-C1: supercharged NSa1 monobody encoding BeLaK, N-terminal Cys; SEQ. ID. NO: 15 and 23 (protein)
chain 1: MGSSHHHHHHSSGTENLYFQGCVSSKPTKLRVVRXTPTSLKIKWDAPAKTVDYYVITYGETGRGGYAWQRFEVPGSKRTATIKGLKPGVDYTITVYAGYKGYPTYYSSPISINYRT
chain 2: B5 chain 1
modifications: BeLaK at position 13; N-terminal Cys; MOD_RES 35 X is N6-(2-Oxoazetidine-1-carbonyl)-L-lysine
notes: supercharged NSa1 monobody encoding BeLaK, N-terminal Cys; ID; NO: 15 and 23
With B5 the X-linking yield was 97%.

B6: NSa1(+5)-A13BeLaK-Y92K: supercharged NSa1 monobody encoding BeLaK; SEQ. ID. NO: 7 (protein)
chain: B1 chain with K42S, R62S, Y113K
modifications: BeLaK non-natural residue at position 13; MOD_RES 34 X is N6-(2-Oxoazetidine-1-carbonyl)-L-lysine
notes: supercharged NSa1 monobody encoding BeLaK; ID; NO: 7
Molecule B6 has a X-linking yield of 53%.

B7: NSa1(+17)-A13BeLaK-Y92K: supercharged NSa1 monobody encoding BeLaK; SEQ. ID. NO: 19 (protein)
chain: B3 chain with Y113K
modifications: BeLaK non-natural residue at position 13; MOD_RES 34 X is N6-(2-Oxoazetidine-1-carbonyl)-L-lysine
notes: supercharged NSa1 monobody encoding BeLaK; ID; NO: 19
Work on B7 yielded a X-linking yield of 89%.
